Data on three molecules can be found in paper PMC6145688 (2018).

This test concerns the target Recombinant active autotaxin-β (ATXβ) (Homo sapiens (Human), UniProt Q13822). In words: SPR.

For GALPDDEDVVGPGQESDDFEL (protein) [SDC4-derived peptide GL21], the binding result is listed as “no binding”.

B1: SDC4-derived peptide VS52 (protein)
chain: VHPLVPLDNHIPERAGSGSQVPTEPKKLEENEVIPKRISPVEESEDVSNKVS
With B1, the binding result is listed as “no binding”.

For the molecule RETEVIDPQDLLEGRYFSGALPDDED (protein) [SDC4-derived peptide RD26], the binding result is “no binding”.
